Test results reported in the supplement of paper PMC9112550, “Optimization of the antimicrobial peptide Bac7 by deep mutational scanning” (BMC Biology, 2022).

System: Escherichia coli TOP10
Experiment: shrunken log2 fold change of peptide-encoding DNA abundance (4.5 h post-induction vs induction); higher = less antimicrobial activity (less host growth inhibition)
Conditions: time post-induction: 4.5 h; library: site-saturation at positions 5, 18, 19, 20
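Also: peptides expressed intracellularly from a pBAD plasmid library in pooled LB shake-flask culture, induced with 0.3% L-arabinose, DNA abundance read by NGS, three biological replicates, DESeq2 with apeglm shrinkage.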

RRIRKRPPRLPRPRPRPGKGPRP
shrunken log2 fold change: -0.0491

RRIRTRPPRLPRPRPRPWHEPRP
shrunken log2 fold change: 0.111

RRIRERPPRLPRPRPRPWIDPRP
shrunken log2 fold change: -0.0474

RRIRTRPPRLPRPRPRPFIRPRP
shrunken log2 fold change: 0.00496

RRIRFRPPRLPRPRPRPNHRPRP
shrunken log2 fold change: -0.306

RRIRMRPPRLPRPRPRPWGKPRP
shrunken log2 fold change: 0.0449

RRIRLRPPRLPRPRPRPVTDPRP
shrunken log2 fold change: -0.325

RRIRARPPRLPRPRPRPYRFPRP
shrunken log2 fold change: 0.0859

RRIRARPPRLPRPRPRPMSWPRP
shrunken log2 fold change: 0.399

RRIRRRPPRLPRPRPRPPGAPRP
shrunken log2 fold change: 0.972

RRIRPRPPRLPRPRPRPGFMPRP
shrunken log2 fold change: 0.048

RRIRLRPPRLPRPRPRPAPSPRP
shrunken log2 fold change: 0.163

RRIRYRPPRLPRPRPRPVLSPRP
shrunken log2 fold change: -0.311

RRIRQRPPRLPRPRPRPDHYPRP
shrunken log2 fold change: -0.213

RRIRNRPPRLPRPRPRPTEKPRP
shrunken log2 fold change: -0.0107

RRIRGRPPRLPRPRPRPTGHPRP
shrunken log2 fold change: 0.448

RRIRLRPPRLPRPRPRPMDLPRP
shrunken log2 fold change: -0.171

RRIRRRPPRLPRPRPRPYHDPRP
shrunken log2 fold change: -0.266

RRIRIRPPRLPRPRPRPHTMPRP
shrunken log2 fold change: -0.776

RRIRCRPPRLPRPRPRPRLRPRP
shrunken log2 fold change: 0.925

RRIRERPPRLPRPRPRPIIKPRP
shrunken log2 fold change: -0.703

RRIRYRPPRLPRPRPRPDFEPRP
shrunken log2 fold change: -0.0141

RRIRRRPPRLPRPRPRPGFTPRP
shrunken log2 fold change: 0.00987

RRIRSRPPRLPRPRPRPWKEPRP
shrunken log2 fold change: -0.0075

RRIRMRPPRLPRPRPRPNMMPRP
shrunken log2 fold change: -0.0235

RRIRFRPPRLPRPRPRPVITPRP
shrunken log2 fold change: -0.666

RRIRERPPRLPRPRPRPTMAPRP
shrunken log2 fold change: 0.00526

RRIRMRPPRLPRPRPRPFDAPRP
shrunken log2 fold change: 0.396

RRIRSRPPRLPRPRPRPEYLPRP
shrunken log2 fold change: -0.0519

RRIRERPPRLPRPRPRPFNVPRP
shrunken log2 fold change: -0.0305

RRIRERPPRLPRPRPRPRHKPRP
shrunken log2 fold change: -0.0631

RRIRPRPPRLPRPRPRPMRCPRP
shrunken log2 fold change: 0.221

RRIRSRPPRLPRPRPRPIMGPRP
shrunken log2 fold change: -0.0258

RRIRGRPPRLPRPRPRPYKHPRP
shrunken log2 fold change: -0.463

RRIRSRPPRLPRPRPRPDEKPRP
shrunken log2 fold change: -0.0769

RRIRHRPPRLPRPRPRPCWKPRP
shrunken log2 fold change: -0.119

RRIRHRPPRLPRPRPRPWYVPRP
shrunken log2 fold change: 0.00296

RRIRTRPPRLPRPRPRPLAQPRP
shrunken log2 fold change: 0.143

RRIRFRPPRLPRPRPRPQCTPRP
shrunken log2 fold change: -0.137

RRIRRRPPRLPRPRPRPWQMPRP
shrunken log2 fold change: 0.0303

RRIRYRPPRLPRPRPRPFLAPRP
shrunken log2 fold change: -0.649

RRIRERPPRLPRPRPRPKKKPRP
shrunken log2 fold change: -0.0784

RRIRWRPPRLPRPRPRPDDKPRP
shrunken log2 fold change: -0.139

RRIRERPPRLPRPRPRPWTKPRP
shrunken log2 fold change: 0.0475

RRIRIRPPRLPRPRPRPPWEPRP
shrunken log2 fold change: -0.21

RRIRERPPRLPRPRPRPMGGPRP
shrunken log2 fold change: 0.0346

RRIRCRPPRLPRPRPRPKDSPRP
shrunken log2 fold change: -0.198

RRIRMRPPRLPRPRPRPRDNPRP
shrunken log2 fold change: 0.455

RRIRIRPPRLPRPRPRPRRNPRP
shrunken log2 fold change: -0.0717

RRIRVRPPRLPRPRPRPWHTPRP
shrunken log2 fold change: -0.33

RRIRFRPPRLPRPRPRPIDKPRP
shrunken log2 fold change: -0.499

RRIRGRPPRLPRPRPRPIMYPRP
shrunken log2 fold change: 0.0639

RRIRNRPPRLPRPRPRPKPYPRP
shrunken log2 fold change: -0.342

RRIRSRPPRLPRPRPRPKFMPRP
shrunken log2 fold change: -0.0581

RRIRGRPPRLPRPRPRPDTRPRP
shrunken log2 fold change: 0.162

RRIRPRPPRLPRPRPRPWFPPRP
shrunken log2 fold change: -0.215

RRIRYRPPRLPRPRPRPVNEPRP
shrunken log2 fold change: -0.109

RRIRHRPPRLPRPRPRPENTPRP
shrunken log2 fold change: 0.0466

RRIRNRPPRLPRPRPRPSRHPRP
shrunken log2 fold change: -0.061

RRIRCRPPRLPRPRPRPYHTPRP
shrunken log2 fold change: -0.887

RRIRERPPRLPRPRPRPCHNPRP
shrunken log2 fold change: -0.0168

RRIRIRPPRLPRPRPRPTTWPRP
shrunken log2 fold change: -0.165

RRIRARPPRLPRPRPRPLTTPRP
shrunken log2 fold change: 0.463

RRIRIRPPRLPRPRPRPHRNPRP
shrunken log2 fold change: -0.846

RRIRARPPRLPRPRPRPGWHPRP
shrunken log2 fold change: 0.378

RRIRQRPPRLPRPRPRPACEPRP
shrunken log2 fold change: -0.0795

RRIRYRPPRLPRPRPRPTIEPRP
shrunken log2 fold change: -0.391

RRIRVRPPRLPRPRPRPSEVPRP
shrunken log2 fold change: -0.138

RRIRFRPPRLPRPRPRPNMCPRP
shrunken log2 fold change: -0.54

RRIRDRPPRLPRPRPRPDFGPRP
shrunken log2 fold change: -0.0319

RRIRSRPPRLPRPRPRPQYVPRP
shrunken log2 fold change: -0.22

RRIRLRPPRLPRPRPRPPTWPRP
shrunken log2 fold change: 0.169

RRIRSRPPRLPRPRPRPCSQPRP
shrunken log2 fold change: -0.214

RRIRDRPPRLPRPRPRPFNCPRP
shrunken log2 fold change: 0.0412

RRIRVRPPRLPRPRPRPVYIPRP
shrunken log2 fold change: -0.363

RRIRHRPPRLPRPRPRPKYIPRP
shrunken log2 fold change: -0.796

RRIRPRPPRLPRPRPRPGAVPRP
shrunken log2 fold change: 0.379

RRIRPRPPRLPRPRPRPEDGPRP
shrunken log2 fold change: 0.0827

RRIRMRPPRLPRPRPRPKETPRP
shrunken log2 fold change: 0.201

RRIRLRPPRLPRPRPRPYILPRP
shrunken log2 fold change: -0.317

RRIRGRPPRLPRPRPRPPVNPRP
shrunken log2 fold change: 0.55

RRIRWRPPRLPRPRPRPHWLPRP
shrunken log2 fold change: 0.243

RRIRDRPPRLPRPRPRPTYCPRP
shrunken log2 fold change: -0.27

RRIRTRPPRLPRPRPRPRQFPRP
shrunken log2 fold change: -0.0836

RRIRCRPPRLPRPRPRPLDWPRP
shrunken log2 fold change: 0.285

RRIRKRPPRLPRPRPRPAQMPRP
shrunken log2 fold change: 0.139

RRIRLRPPRLPRPRPRPVLRPRP
shrunken log2 fold change: -0.113

RRIRQRPPRLPRPRPRPWWRPRP
shrunken log2 fold change: 0.0847

RRIRMRPPRLPRPRPRPVERPRP
shrunken log2 fold change: 0.015

RRIRDRPPRLPRPRPRPGRLPRP
shrunken log2 fold change: 0.0513

RRIRHRPPRLPRPRPRPERFPRP
shrunken log2 fold change: -0.0122

RRIRYRPPRLPRPRPRPIDRPRP
shrunken log2 fold change: -0.017

RRIRQRPPRLPRPRPRPTCYPRP
shrunken log2 fold change: -0.309

RRIRGRPPRLPRPRPRPVIVPRP
shrunken log2 fold change: 0.626

RRIRTRPPRLPRPRPRPANPPRP
shrunken log2 fold change: 0.0504

RRIRDRPPRLPRPRPRPVAIPRP
shrunken log2 fold change: 0.711

RRIRFRPPRLPRPRPRPLDQPRP
shrunken log2 fold change: 0.0734

RRIRKRPPRLPRPRPRPDPHPRP
shrunken log2 fold change: -0.0362

RRIRMRPPRLPRPRPRPGQSPRP
shrunken log2 fold change: 1.23

RRIRRRPPRLPRPRPRPGTSPRP
shrunken log2 fold change: 0.0636

RRIRGRPPRLPRPRPRPAGQPRP
shrunken log2 fold change: 0.727

RRIRKRPPRLPRPRPRPENPPRP
shrunken log2 fold change: 0.126

RRIRFRPPRLPRPRPRPRWWPRP
shrunken log2 fold change: 0.34

RRIRIRPPRLPRPRPRPWCKPRP
shrunken log2 fold change: -0.284

RRIRWRPPRLPRPRPRPSFSPRP
shrunken log2 fold change: -0.286

RRIRARPPRLPRPRPRPPAMPRP
shrunken log2 fold change: 0.394

RRIRPRPPRLPRPRPRPTQGPRP
shrunken log2 fold change: 0.753

RRIRLRPPRLPRPRPRPQWRPRP
shrunken log2 fold change: 0.087

RRIRIRPPRLPRPRPRPKACPRP
shrunken log2 fold change: 0.0544

RRIRLRPPRLPRPRPRPEYKPRP
shrunken log2 fold change: -0.438

RRIRMRPPRLPRPRPRPEHTPRP
shrunken log2 fold change: 2.63

RRIRDRPPRLPRPRPRPIQFPRP
shrunken log2 fold change: -0.177

RRIRMRPPRLPRPRPRPVKNPRP
shrunken log2 fold change: 0.00715

RRIRKRPPRLPRPRPRPMPQPRP
shrunken log2 fold change: 0.0873

RRIRGRPPRLPRPRPRPIYDPRP
shrunken log2 fold change: -0.259

RRIRGRPPRLPRPRPRPLENPRP
shrunken log2 fold change: 0.766

RRIRDRPPRLPRPRPRPKFKPRP
shrunken log2 fold change: -0.0689

RRIRERPPRLPRPRPRPCRGPRP
shrunken log2 fold change: 0.0764

RRIRKRPPRLPRPRPRPKRHPRP
shrunken log2 fold change: 0.255

RRIRWRPPRLPRPRPRPAYYPRP
shrunken log2 fold change: -0.157

RRIRPRPPRLPRPRPRPTNCPRP
shrunken log2 fold change: -0.169

RRIRQRPPRLPRPRPRPHYAPRP
shrunken log2 fold change: -0.0213

RRIRQRPPRLPRPRPRPPGTPRP
shrunken log2 fold change: 0.617

RRIRERPPRLPRPRPRPYFHPRP
shrunken log2 fold change: -0.996

RRIRSRPPRLPRPRPRPLLKPRP
shrunken log2 fold change: 0.253

RRIRGRPPRLPRPRPRPEWDPRP
shrunken log2 fold change: 1.56

RRIRQRPPRLPRPRPRPPSTPRP
shrunken log2 fold change: 0.179

RRIRARPPRLPRPRPRPARKPRP
shrunken log2 fold change: 0.898

RRIRLRPPRLPRPRPRPMGEPRP
shrunken log2 fold change: 0.136

RRIRNRPPRLPRPRPRPMMDPRP
shrunken log2 fold change: -0.425

RRIRHRPPRLPRPRPRPSWTPRP
shrunken log2 fold change: -0.356

RRIRNRPPRLPRPRPRPISPPRP
shrunken log2 fold change: -0.13

RRIRLRPPRLPRPRPRPVINPRP
shrunken log2 fold change: -0.686

RRIRCRPPRLPRPRPRPKFEPRP
shrunken log2 fold change: 0.00386

RRIRARPPRLPRPRPRPCIGPRP
shrunken log2 fold change: 0.0942

RRIRQRPPRLPRPRPRPLPNPRP
shrunken log2 fold change: 0.0261

RRIRPRPPRLPRPRPRPHTNPRP
shrunken log2 fold change: 0.401

RRIRSRPPRLPRPRPRPQCAPRP
shrunken log2 fold change: 0.233

RRIRDRPPRLPRPRPRPNVMPRP
shrunken log2 fold change: -0.323

RRIRTRPPRLPRPRPRPTNTPRP
shrunken log2 fold change: -0.536

RRIRHRPPRLPRPRPRPYNGPRP
shrunken log2 fold change: -0.835

RRIRRRPPRLPRPRPRPIRKPRP
shrunken log2 fold change: -0.0416

RRIRERPPRLPRPRPRPYQVPRP
shrunken log2 fold change: -0.109

RRIRVRPPRLPRPRPRPTKLPRP
shrunken log2 fold change: -0.121

RRIRARPPRLPRPRPRPASIPRP
shrunken log2 fold change: 0.0775

RRIRWRPPRLPRPRPRPPEHPRP
shrunken log2 fold change: 0.544

RRIRPRPPRLPRPRPRPCHVPRP
shrunken log2 fold change: -0.0695

RRIRSRPPRLPRPRPRPDKNPRP
shrunken log2 fold change: -0.105

RRIRKRPPRLPRPRPRPLHSPRP
shrunken log2 fold change: 0.0787

RRIRDRPPRLPRPRPRPQTLPRP
shrunken log2 fold change: 0.0519
